In the Immune Epitope Database (IEDB):
pIC50, pKd: −log10 of the molar value.

Key:
HLA-A*24:02 [1] = experiment: IEDB peptide-MHC binding, purified MHC/competitive/radioactivity; filed as Kd, often an IC50 or EC50 that approximates it; ≥ and ≤ were set here for values at or beyond the usual limits of such assays
HLA-A*30:02 = experiment: as above
HLA-A*26:01 = experiment: as above
HLA-A*23:01 = experiment: as above
HLA-A*01:01 = experiment: as above
HLA-A*29:02 = experiment: as above
HLA-B*08:01 = experiment: as above
HLA-A*68:02 = experiment: as above
HLA-A*32:01 = experiment: as above
HLA-B*39:01 = experiment: IEDB peptide-MHC binding, purified MHC/competitive/fluorescence; filed as Kd, often an IC50 or EC50 that approximates it; ≥ and ≤ were set here for values at or beyond the usual limits of such assays; conditions: source organism: Bacillus anthracis str. A0488
HLA-A*24:02 [2] = experiment: IEDB peptide-MHC binding, purified MHC/competitive/fluorescence; ≥ and ≤ were set here for values at or beyond the usual limits of such assays
HLA-A*02:06 = experiment: IEDB peptide-MHC binding, purified MHC/competitive/radioactivity; filed as Kd, often an IC50 or EC50 that approximates it; ≥ and ≤ were set here for values at or beyond the usual limits of such assays; conditions: source organism: Dengue virus 4 Philippines/H241/1956
HLA-A*02:01 = experiment: IEDB peptide-MHC binding, purified MHC/competitive/fluorescence; ≥ and ≤ were set here for values at or beyond the usual limits of such assays; conditions: source organism: Zaire ebolavirus
HLA-A*68:01 = experiment: IEDB peptide-MHC binding, purified MHC/competitive/radioactivity; filed as Kd, often an IC50 or EC50 that approximates it; ≥ and ≤ were set here for values at or beyond the usual limits of such assays; conditions: source organism: Vaccinia virus WR
HLA-A*11:01 = experiment: as above; conditions: source organism: Vaccinia virus WR
HLA-A*31:01 = experiment: as above; conditions: source organism: Vaccinia virus WR
HLA-A*03:01 = experiment: as above; conditions: source organism: Vaccinia virus WR
HLA-A*33:01 = experiment: as above; conditions: source organism: Vaccinia virus WR
HLA-B*18:01 = experiment: IEDB peptide-MHC binding, purified MHC/direct/fluorescence; filed as Kd, often an IC50 or EC50 that approximates it; ≥ and ≤ were set here for values at or beyond the usual limits of such assays; conditions: source organism: Campylobacter jejuni RM1221
[3] = source organism: SARS coronavirus Tor2
[4] = source organism: Vaccinia virus WR
[5] = source organism: Dengue virus 4 Philippines/H241/1956
[6] = source organism: Lymphocytic choriomeningitis virus (strain Armstrong)
[7] = source organism: Dengue virus 2 Jamaica/1409/1983
[8] = source organism: Mammarenavirus juninense
[9] = source organism: Zaire ebolavirus
[10] = source organism: Lassa virus Josiah
[11] = source organism: Mammarenavirus brazilense
[12] = source organism: Mammarenavirus lassaense
[13] = source organism: Mammarenavirus machupoense

VTYNCCDDDY showed a pKd (HLA-A*24:02 [1]; [3]) of at most 4.15, a pKd (HLA-A*30:02; [3]) of 7.10 and a pKd (HLA-A*26:01; [3]) of 4.73. The pKd (HLA-A*23:01; [3]) was at most 4.15, the pKd (HLA-A*01:01; [3]) was 7.49 and the pKd (HLA-A*29:02; [3]) was 5.35.

EKMRRERAA showed a pKd (HLA-B*08:01; [4]) of 8.74.

TTANWLWALL was tested, and the pKd (HLA-A*01:01; [5]) was 4.91 and the pKd (HLA-A*68:02; [5]) was 8.35.

Work on FQPQNGQFI yielded a pKd (HLA-A*24:02 [1]; [6]) of 5.90, a pKd (HLA-A*30:02; [6]) of at most 4.11 and a pKd (HLA-A*26:01; [6]) of at most 4.11. It also gave a pKd (HLA-A*23:01; [6]) of at most 4.69, a pKd (HLA-A*01:01; [6]) of at most 4.11 and a pKd (HLA-A*29:02; [6]) of at most 4.10.

For AVLFVVTLI, the pKd (HLA-A*32:01; [5]) was 5.90.

With MQESGVSKL the pKd (HLA-B*39:01) was 7.94.

Work on NINRLILNF yielded a pKd (HLA-A*32:01; [4]) of 5.58.

RLMSINRGF gave a pKd (HLA-A*32:01; [4]) of 8.52.

Work on SIRFHIKEL yielded a pKd (HLA-B*08:01; [4]) of 9.34.

MRRGDLPVWL was tested, and the pKd (HLA-B*08:01; [7]) was 5.24.

VFYRSGTET was tested, and the pIC50 (HLA-A*24:02 [2]; source organism: Vaccinia virus Copenhagen) was at most 3.83.

EMVCFHEFL showed a pKd (HLA-A*24:02 [1]; [8]) of 4.77, a pKd (HLA-A*23:01; [8]) of 5.70 and a pKd (HLA-A*29:02; [8]) of at most 5.00.

MVAGGLLLA gave a pKd (HLA-A*68:02; [5]) of 7.25 and a pKd (HLA-A*02:06) of 7.75.

With SKRTKSKIL the pKd (HLA-B*08:01; [4]) was 6.85.

For KIEELFYSY, the pKd (HLA-A*24:02 [1]; [3]) was at most 4.68, the pKd (HLA-A*30:02; [3]) was 7.94 and the pKd (HLA-A*26:01; [3]) was at most 4.09. It also gave a pKd (HLA-A*23:01; [3]) of at most 4.62, a pKd (HLA-A*01:01; [3]) of 6.27 and a pKd (HLA-A*29:02; [3]) of 7.41.

Work on IKRGLRTLIL yielded a pKd (HLA-B*08:01; [7]) of 4.99.

ELMYIFAAL gave a pKd (HLA-B*08:01; [4]) of 7.52.

KFADDLNQM showed a pKd (HLA-A*24:02 [1]; [3]) of 5.82, a pKd (HLA-A*30:02; [3]) of at most 4.52 and a pKd (HLA-A*26:01; [3]) of at most 4.35. The pKd (HLA-A*23:01; [3]) was 6.18, the pKd (HLA-A*01:01; [3]) was at most 4.11 and the pKd (HLA-A*29:02; [3]) was 6.91.

RSNTTGKLI gave a pIC50 (HLA-A*24:02 [2]; [9]) of 4.36 and a pIC50 (HLA-A*02:01) of at most 3.09.

For FIESSICLDY, the pKd (HLA-A*68:01) was 6.02, the pKd (HLA-A*11:01) was 5.41 and the pKd (HLA-A*31:01) was 5.00. It also gave a pKd (HLA-A*29:02; [4]) of at most 4.39, a pKd (HLA-A*03:01) of 5.53 and a pKd (HLA-A*33:01) of 5.25.

EGKDTPGGY gave a pKd (HLA-A*24:02 [1]; [10]) of at most 4.11, a pKd (HLA-A*30:02; [10]) of at most 4.11 and a pKd (HLA-A*26:01; [10]) of at most 4.11. The pKd (HLA-A*23:01; [10]) was at most 4.20, the pKd (HLA-A*01:01; [10]) was at most 4.42 and the pKd (HLA-A*29:02; [10]) was at most 4.10.

Sequence EYGFTRRFKF has a pKd (HLA-A*24:02 [1]; [11]) of 6.87, a pKd (HLA-A*23:01; [11]) of 7.34 and a pKd (HLA-A*29:02; [11]) of 6.88.

AGFVAGLTY showed a pKd (HLA-A*24:02 [1]; [12]) of at most 4.28, a pKd (HLA-A*30:02; [12]) of 6.28 and a pKd (HLA-A*26:01; [12]) of at most 4.11. The pKd (HLA-A*23:01; [12]) was 5.10, the pKd (HLA-A*01:01; [12]) was at most 4.45 and the pKd (HLA-A*29:02; [12]) was 6.89.

Work on IYRGVNFAE yielded a pIC50 (HLA-A*24:02 [2]; source organism: Sudan ebolavirus) of 5.30.

With SGIFITDNV the pKd (HLA-A*68:02; [7]) was 7.92.

YHPVYILPY was tested, and the pKd (HLA-B*18:01) was 5.84.

VWLGFIAGL showed a pKd (HLA-A*24:02 [1]; [3]) of at most 4.33, a pKd (HLA-A*30:02; [3]) of 7.92 and a pKd (HLA-A*26:01; [3]) of at most 4.11. For the same sequence, the pKd (HLA-A*23:01; [3]) was 5.15, the pKd (HLA-A*01:01; [3]) was at most 4.11 and the pKd (HLA-A*29:02; [3]) was 7.44.

In the case of YPHYKSCAL, the pKd (HLA-B*08:01; [4]) was 6.00.

For SKKFKFNSQ, the pKd (HLA-B*08:01; [4]) was 5.16.

Sequence DLSDQIAEL has a pKd (HLA-A*68:02; source organism: Homo sapiens) of 6.31.

Work on DQIGDIIIA yielded a pIC50 (HLA-A*24:02 [2]; source organism: Variola virus) of 6.10.

In the case of KWDLIISDMY, the pKd (HLA-A*24:02 [1]; [3]) was at most 4.40, the pKd (HLA-A*30:02; [3]) was 7.07 and the pKd (HLA-A*26:01; [3]) was at most 4.68. For the same sequence, the pKd (HLA-A*23:01; [3]) was at most 4.15, the pKd (HLA-A*01:01; [3]) was at most 4.04 and the pKd (HLA-A*29:02; [3]) was 6.60.

SHRPVVLTG was tested, and the pIC50 (HLA-A*24:02 [2]; source organism: Variola virus) was at most 4.15.

For DDPTDSQDT, the pIC50 (HLA-A*24:02 [2]; [9]) was 4.16.

Sequence NKKYRCMAL has a pKd (HLA-B*08:01; [4]) of 8.73.

Sequence QSIFRFLNI has a pKd (HLA-A*32:01; [4]) of 6.52.

In the case of YLRDHFYNL, the pKd (HLA-B*08:01; [4]) was 8.08.

For GERSRCYSVY, the pKd (HLA-A*24:02 [1]; [13]) was at most 4.15, the pKd (HLA-A*30:02; [13]) was 5.35 and the pKd (HLA-A*26:01; [13]) was at most 4.16. The pKd (HLA-A*23:01; [13]) was at most 4.31, the pKd (HLA-A*01:01; [13]) was at most 4.15 and the pKd (HLA-A*29:02; [13]) was at most 4.15.
